Values quoted from earlier work, collected in paper PMC3890242.

Biological target: Tyr57 (UniProt position 57, QIAAFYRQGLG)
Test: UV-vis
Settings: unliganded D40N pKSI

Ketosteroid isomerase (pKSI) D40N (Pseudomonas putida; D40N)
pKa: 6.3 ± 0.1
